Test [1] addresses Fc region prepared from human monoclonal IgG by papain digestion (human). The test is described as follows: SPR, Fc immobilized. On the technique in general: SPR reads the build-up and loss of mass on a sensor chip optically.
Test [2] addresses human Fc region manufactured by Jackson ImmunoResearch Laboratories, Inc. (human). In words: SPR, Fc immobilized, 25 C.

B1: variant polypeptide p17_M51A (peptide)
peptide: GPGISAFSPGRGVYDPETGTWYDAAWHLGELVWATYYDPETGTWEPDWQRALGQ
By Kd is commonly meant the concentration at which binding is half-saturated. Low readings indicate tighter binding, high ones weaker binding. In test [1], B1 displayed an equilibrium dissociation constant (Kd) of 0.18 µM and a fold decrease of binding activity against p17 greater than 100 times.
For the molecule GVVRQWSGGGGSGGGGRSSIAYGGG [polypeptide 2A1Gly], the dissociation constant (Kd) in test [2] was determined as 23 µM.
On the same count and under the same terms, as for RSSIAYGGG [polypeptide RSS], the figure is 110 µM.

(Values after patent publication US20150353608A1.)
